Experimental data: the DeepSol protein solubility set

assay: soluble on expression in E. coli; label from the status in PepcDB or PDB records

Sequence | soluble on expression in E. coli
MAHHHHHHMPFNREILAAISFESGPLSSAEIAARRTPTEEPPKNLEVKSCDKRDEPRQNEATINLIRCMKWALGQSITSISHPAKQRPLNPKRDFSIKTKINLDVGVEKPKPGFCCSTAAATGVREQRNHHAPFYDAHGDSEEASHLDESDVESHDEVPNVPLAFVDYSPMCYRHIREFFNIDHRAYRDVLLRSRWHSTPTPGKSAAQLFFCGRDWVIKTMTHEESKFLRRILHRYYFFVLDHPYTLLPHFVGHHRLEINGEKMYIIIMQNVFVTGNTIHEKYDLKGSTVGRFATEAEKKKQTCTQKDLDINRPLHVGATRRNLLIEQMKMDCGFLNQCNIMDYSFLVGIHVLPMYEAHRPAPSTGSREYLGGAAALATSALEPSYLLGMGETMQPMALNGHPTAAADSAPTDGRCFKADQGGMMSADHPGGRREIYYIGIIDILQEYNSRKSMETLVFGMLKDRQKISAVPPKEYAARFVSFVSSIIV | not soluble
DGTCVNTNSQITANSQCVKSTATNCYIDNSQLVDTSICTRSQYSDANVKKSVTTDCNIDKSQVYLTTCTGSQYNGIYIRSSTTTGTSISGPGCSISTCTITRGVATPAAACKISGCSLSAM | soluble
MGHHHHHHSHMAPGGLFLPYHSLPQPDFLASCPTRHLKLCQCPGILAENPHQFSPTFPPGKGSCQHGALPGQVSLKEAAHTEMSLSGQDLFPSPAHPPLQPFWLPFSLCLSTPFLVADNELRLPKGQICPLHVFVLANRVVLKLCANSVWEHSKGIT | not soluble
MLSPQTTQVAIIGAGPSGSIAAALLNKHNINCIILEKSTFPRFSIGESLLPACMESIKHAGMLNAVEDACFQFKDGAAFHCNGTFTSFDFTDKFTDGAGTTFQVQRGNFDKVLADCAKEQGVEIRYQHEITDVDVNAEKPLLSVLDENGTPYQIQADFILDASGFGRVLPKLLELEEPSCLPPRRAIFTHIKDNITDESYDRNKILVSVHPTNTQVWYWLIPFSNGTCSFGVVGEPEFFDAYSEDKVTALKQLAEEESNLKHLLNQAEYPNPCGEIMGYSANVSKLFDKNFALLGNAGEFLDPVFSSGVTIAMKSAELAADLLIKQFNQEDVNWQQDYSDKLMKGVNAFRCYVEGWYEGTFQDVIFHENPNPKIKQMICAILAGYAWDESNPFVAEPERRLKVVAELCKPLEHHHHHH | not soluble
MAHHHHHHMYSTTNDKSENEDLNDVIEININNIANKLANILYITNVGMKENCELKNNLHFSKFLNDMRSYCVNLIQSINNLNSNFYNLTCLPVHSIPRNPYTNILDINVITNNISVDDNADKIKEKQTLLQSFHNKYDKNKTTFHQSIKHIETFNDQLFSALNNLDHIKMSIKYQDQESSTYGNVVSERLKNKQKDHEHLELYIARVHYGLF | not soluble
RYNGLTLRSVFQPIFDKQHQVVGAEALVRIFTQHHTQIRPDLFFHSETFADDDKLNVERLSRAIHIRNFSLSPYRDTRLFLNVLPVAGEQFAYCDISSTLLATRLAELNIPHHRVVMELVEIESGDEGMLQMATEKLVANGFQIAIDDFGCKASTPERVAMLRPNIIKLDRQLLLDFMAGDCCGLLAGVQLAQKTGAHTVVEGIETAEQLAAMQKLDINMYQGYYLALPEGIAQTAKVANAN | not soluble
MGHHHHHHSHLTTKEDVFDAIVTLKVRGAPAIGITAAFGLALAAKDIETDNVTEFRRRLEDIKQYLNSSRPTAINLSWALERLSHSVENAISVNEAKTNLVHEAIQIQVEDEETCRLIGQNALQLFKKGDRIMTICNAGSIATSRYGTALAPFYLAKQKDLGLHIYACETRPVLQGSRLTAWELMQGGIDVTLITDSMAAHTMKEKQISAVIVGADRIAKNGDTANKIGTYGLAILANAFDIPFFVAAPLSTFDTKVKCGADIPIEERDPEEVRQISGVRTAPSNVPVFNPAFDITPHDLISGIITEKGIMTGNY | not soluble
GPGSMERLLPSMQQRFAELAHTGVGESSLTVEALFQRYQRVLKVGEGTFGEVFVLYDTVAHTYITMKRMHTLLSLRRRSLGIHRCTFREVELLAALQHPNIVQVLDYHILSDGSLVMLMPVIAHDLTSLLRRWPSTPQSSDHGTASTAASTRPRMPLHVVKCIFRQIIAGVAYLHKHKVVHRDLKPSNVMVDHTGVVKLIDFGWSRFCAAAGAMTGPPCVTAFRPPEVLMGAHNHYTFSLDIWCCGCILFEMLTGGTPFAKSRNEAECLANIVDWLGSPPSSSEVYYRRAARCPFPLAPGRPDTFAQRCSNYGIKSAEAMFLRRMLCLEPGERATAEALLRDPWFTTAPTMCVPRAVPLPAHNMFRLVEVKRKELEH | not soluble
MNRRDFLKTAGLTGIALGLPGCARSLPFGRDVFPDFGDDARPYLGLATSLREEHDYEARVEGTIPAGLRGTLYRNGPALFDRGGMRKRTLLDGDGMVQAFRFGDRGIRYANRFVRTRKFVEEEAAGRFLHPTWSTQAPGGIWTNVWPTERLLSQAGITVFPWRGRLYAFDESSFPYELDPDTLATVGETTFGLPRDLTTYSAHGKFDPVTGEWLHFGIRYGPRTFVHLTTFNADGTLRRHRALELPRAIYMHDWFVTERHVVFHLHPVEIAYWPFLLGIRSMAESLRWRPERGTILMVAERDGEAPPRLVETEACYLWHTFNAWEERGKITADFVGYRNPDHFISDDPVITAVMLGRRGTYSYPGEVMRYRIDPARGTAAREVLHQGSCEWPRIDERLRCRPHRTGYMLRCLPGEFFWSIVMGLDPVTGRTDEYSFGRGVYCTEPVFAPRPDTLAGGPGWLLVELYDSRTRTSSLAILDADRIADGPLALVRLTHHVPFSYHGWWQPASLEHHHHHH | not soluble
MATITDNDVALTITKIHQIQGSGTAFNSAFGGIRTIEGVVVAAFPGGSGLNGFFVQEEDADTDNDSTTSEGIFVFDPTGQFSGSVGDKVRVTGSVSEFSTNNGVSSLTQLSSVSSIINLGADILPKMSNIQLPVTTVADLERYEGMRVNISAGNGDLTVTEHFQLGRFGQVVLSATGTSNQPGTDGRLEQYTQFNDPSVAGYAAYLDEIAKRRIILDDGSSTQNPATIIFGRGGEPLSATNTLRGGDTVASITGVLDQRFEGYRVQTSTGVDFTPANPRPATTPDVGGTLKVASFNVLNYFNGDLEHHHHHH | not soluble
MGSDKIHHHHHHMTEEVPSMDTAPSVGDVREYWNRNPLLSHELASPGSPAFFASLDTAKREDSDRFAMDYWEFGQWAGQRVLDIGCGPGWLTVQYARGGAQVDSVDLTPRAVELAQAHLALHGQSATVREGNAEELPFPDDQFDLVAASGVLHHTPDTQATFREAFRVTKPGGQGKITLYRKGILHHPAVFAMTRIAMRLFGVKHPGADLGKNSSDVDDFIRRYDGDGNPVGIGKTDADWAADLAAAGWVVQGHEVHFFPRRFLPCARLIPVWLHEFLDTRLGTMVYFRLRKPIISGK | not soluble
SMTLTLNRQLLTSRQILVAFSGGLDSTVLLHQLVQWRTENPGVALRAIHVHHGLSANADAWVTHCENVCQQWQVPLVVERVQLAQEGLGIEAQARQARYQAFARTLLPGEVLVTAQHLDDQCETFLLALKRGSGPAGLSAMAEVSEFAGTRLIRPLLARTRGELVQWARQYDLRWIEDESNQDDSYDRNFLRLRVVPLLQQRWPHFAEATARSAALCAEQESLLDELLADDLAHCQSPQGTLQIVPMLAMSDARRAAIIRRWLAGQNAPMPSRDALVRIWQEVALAREDASPCLRLGAFEIRRYQSQLWWIKSVTGQSENIVPWQTWLQPLELPAGLGSVQLNAGGDIRPPRADEAVSVRFKAPGLLHIVGRNGGRKLKKIWQELGVPPWLRDTTPLLFYGETLIAAAGVFVTQEGVAEGENGVSFVWQKTLS | soluble
GPGSMQERESLLKEYKGLLANLEEAFDLKRSNEADQEVDDLIDETKAELRTVVASLNASEVIEVTKDVTKVVDADGNTVILYSKVAPYEVHFDNAMWYSCVITDVVQPETALERVRYKAWILGYNVEEETYSEQLRVWQPQAAEGETTLRSGVACHAVNPRSGRFESAKVVRLTLSDTVILTFSDVVEMTKEVGETDGAGAAGELATGKRDPSGGDTSAVTEEVPLSHVRVGRFYQQLRKRSTLTSEERARRRAQNVERKRVRRETKRQQDANVASQNANDWQRLVEDMGLATGCAKKRR | soluble
MAKIDIIDNYETLLISVEEIRASLESLHAWLDKDIDWDSQCDWYDFISQHSSQIAILNLIMYRLDSLEVEHRSVIENTMKGK | not soluble
SAPGWLKEMRGEHIPETEEYGISSFSFLARRPFHPEKFYHFLHDTEKFGKLIRSKGYFWLATRPQFSGQWNQAGGIAHYGFAAMFWKSVPKKDWPIDEESLNAIEKQWVEPFGDMRQELVFIGQQLDQGAMTNALNECLL | not soluble
MGSDKIHHHHHHMQLKPLLRQLATTFEVTVDPTFTHNPEVTHVQFVDPTEALASHRLYLSPDSSQLVQLTYSWHGHRQSVGLVNLGTGLTTIIAAQNQLLKLLMTLGQCLHHDVQIQAAINQLAIQAITADFDTTLAQAVRLLENPLAIIDLNGEILTRSHTTQLNGTSIHAAVETNRVGRWLLDHGFAPDTPDFLTQVYVAEDQLSAGPMLITPLANGTEPLGYLVMPALNKPLNDRQALLINSIGQVIAGSLVKNQIMPTAESQRDRLLNLLLTEHQGGTFADQFAEQHVQLPTAMVLIRCEPLADQAPMILQQRLQYLMMPRFKQVLVSTYQQQCVALIPISLVAYNQNQFKLTLQQITKQADCRLIVSQHYVNPEDTFAAYTVCERTAQLKTGRGRVIFCEDQFYNLALARVNHLEILPFFINPALRLLLAYDQQNHTELVPTLDVYLRATCNLTRTAKQLYVHPNTLRNRLHHITTLTGCDLRDAETCFKLAASFKLRQFLTQHQYQYRPDIPIPTQD | not soluble
MTMRFSVLASGSTGNAFYIETDRQRLLVDAGLSGKQLEELFAEIGRHPKQLDALLVTHEHSDHIKGLGVLARKYRLPVYANEKTWRAMEQAVGDIPPEQKFVFPLGAVRTFGDVDVESFGVSHDAAEPMFYVFHYEGKKLALLTDTGYVSERIKKTIENADVFVFESNHDVGMLRMGRYPWSVKRRILSDVGHISNEEAGLALADVIGDRTKQIYLAHLSQDNNMKELARMTVTQVLEQKGLAVGARFRLYDTDPRRATALAYV | not soluble
MGSDKIHHHHHHMAGSLIERTLRVLETLSSEPDGIPLQRLAERLEIPKSAAHRICNELGRQGYVRQETRTGHYRLSTRLIALGFRYLGSTGASDVLQPILDRLADETGELVRLGVIEGDRQTWIAKAQGTRTGLRYDPDMGREAPLRYTASGQAWLASLDDQAALALLERQGHHNPEHFGPNAPRTDYELLDRLALARERGYTCCVDSSALGTSAFGAVIRHPMQGHTIGVISVAGPSVRLTEDRMHELAPKLLQAVEELSQCSQASQLFSE | not soluble
MTTPKTFVPELLSPAGSLKNMRYAFAYGADAVYAGQPRYSLRVRNNEFNHENLQIGINEAHALGKKFYVVCNIQPHNSKLKTFIRDLKPVIDMGPDALIMSDPGLIMMVREEFPHMPIHLSVQANAVNWATVKFWASQGVERVIVSRELSLEEIEEIREKCPNTEIEVFVHGALCMAYSGRCLLSGYINKRDPNQGTCTNACRWEYKVEAAKEDEAGQIVEQFDPNAAQAIEVQNERPDTTIGAGKPIDDVVLLSESHRPDEKMAAFEDEHGTYIMNSKDLRAVQHVERLTQMGVHSLKIEGRTKSFYYCARTAQVYRKAIDDAVAGKPFDDSLMTTLESLAHRGYTEGFLRRHTHDAYQNYDYGYSVSDTQQFVGEFTGKRRGAMAEVEVKNKFVLGDSLELMTPKGNVIFTLEAMENRKGEATDDAKGNGHFVYIPVPEELDLSYALLMRNLVQGQDTRNPTGK | not soluble
SNAMLRYGDTEICIDPSESVLHLLGKKYTMLIISVLGNGSTRQNFNDIRSSIPGISSTILSRRIKDLIDSGLVERRSGQITTYALTEKGMNVRNSLMPLLQYISVLDRNGD | soluble
